{
  "source": "patent US20040126784",
  "proteins": {"B1": {"name": "GST-CNK (wild type CNK fused to GST, produced in E. coli) (protein)", "chain": "MLAGLPTSDPGRLITDPRSGRTYLKGRLLGKGGFARCYEATDTETGSAYAVKVIPQSRVAKPHQREKILNEIELHRDLQHRHIVRFSHHFEDADNIYIFLELCSRKSLAHIWKARHTLLEPEVRYYLRQILSGLKYLHQRGILHRDLKLGNFFITENMELKVGDFGLAARLEPPEQRKKTICGTPNYVAPEVLLRQGHGPEADVWSLGCVMYTLLCGSPPFETADLKETYRCIKQVHYTLPASLSLPARQLLAAILRASPRDRPSIDQILRHDFFTKGYTPDRLPISSCVTVPDLTPPNPARSLFAKVTKSLFGRKKKSKNHAQERDEVSGLVSGLMRTSVGHQDARPEAPAASGPAPVSLVETAPEDSSPRGTLASSGDGFEEGLTVATVVESALCALRNCIAFMPPAEQNPAPLAQPEPLVWVSKWVDYSNKFGFGYQLSSRRVAVLFNDGTHMALSANRKTVHYNPTSTKHFSFSVGAVPRALQPQLGILRYFASYMEQHLMKGGDLPSVEEVEVPAPPLLLQWVKTDQALLMLFSDGTVQVNFYGDHTKLILSGWEPLLVTFVARNRSACTYLASHLRQLGCSPDLRQRLRYALRLLRDRSPA"}, "B2": {"name": "GST-CNK D146A mutant (protein)", "chain": "B1 chain with D146A"}},
  "key": {"[1]": {"target": "maltose binding protein (MBP)"}},
  "note": "Changes are numbered by the printed parent chain. Names may count otherwise.",
  "data": [
    {"protein": "B1", "values": [
      {"measurement": "kinase activity (32P-ATP kinase reaction)", "setting": "[1]", "result": "Wild type GST-CNK phosphorylated p53, maltose binding protein (MBP) and also exhibited autophosphorylation activity."},
      {"measurement": "kinase activity (32P-ATP kinase reaction)", "setting": "p53, P04637", "result": "Wild type GST-CNK phosphorylated p53, maltose binding protein (MBP) and also exhibited autophosphorylation activity."}
    ]},
    {"protein": "B2", "values": [
      {"measurement": "kinase activity (32P-ATP kinase reaction)", "setting": "[1]", "result": "The GST-CNK D146A mutant did not exhibit kinase activity."},
      {"measurement": "kinase activity (32P-ATP kinase reaction)", "setting": "p53, P04637", "result": "The GST-CNK D146A mutant did not exhibit kinase activity."}
    ]}
  ]
}
